Data from US20220168345A1 (published 2022).

Molecular target: T1, NY-ESO-1 peptide on HLA-B*07:02 (human)
T1 peptide: APRGPHGGAASGL
Assay: multimer staining
Description: FIGS. 3A-3I are graphical representations of positive staining of Jurkat 76/CD8 cells transduced with B*07:02/NY-ESO-1₆₀₋₇₂ TCR genes with a cognate multimer. Jurkat 76/CD8 cells transduced with the B*07:02/NY-ESO-1₆₀₋₇₂ TCR (FIGS. 3B, 3E, and 3H) were stained with the B*07:02/NY-ESO-1₆₀₋₇₂ multimer (FIG. 3B). The B*07:02/MAGE-A1₂₈₉₋₂₉₇ multimer (FIGS. 3D, 3E, and 3F), B*07:02/unexchanged multimer (FIGS. 3G, 3H, and 3I), and B*07:02/MAGE-A1₂₈₉₋₂₉₇ TCR (FIGS. 3C, 3F, and 3I) were employed as controls, as well as Jurkat 76/CD8 not transduced with a TCR (FIGS. 3A, 3D, and 3G). The percentage of multimer⁺ CD8⁺ cells is shown.
T cells (1×10⁵) were incubated for 30 minutes at 37° C. in the presence of 50 nM dasatinib (LC laboratories). The cells were then washed and incubated with 5-10 μg/ml of multimer for 30 minutes at room temperature, and R-phycoerythrin-conjugated AffiniPure Fab fragment goat anti-mouse IgG1 (Jackson ImmunoResearch Laboratories) was added for 15 minutes at 4° C. Next, the cells were washed three times and costained with an anti-CD8 mAb for 15 minutes at 4° C. Dead cells were finally discriminated using the LIVE/DEAD Fixable Dead Cell Stain kit.

B1: B*07:02/NY-ESO-1 60-72 TCR (TCR, V domains shown)
Valpha: AQSVTQLDSHVSVSEGTPVLLRCNYSSSYSPSLFWYVQHPNKGLQLLLKYTSAATLVKGINGFEAEFKKSETSFHLTKPSAHMSDAAEYFCVVSFSGNTPLVFGKGTRLSVIA
Vbeta: DTGVSQDPRHKITKRGQNVTFRCDPISEHNRLYWYRQTLGQGPEFLTYFQNEAQLEKSRLLSDRFSAERPKGSFSTLEIQRTEQGDSAMYLCASSSSYSNQPQHFGDGTRLSIL
  binding result: recognises
